Experimental data reported in patent US20260232840A1 (UNIVERSITY OF BRITISH COLUMBIA, published 2026).
Positions count from the first letter of the chain named.

B1: rabbit anti-SOD1 antibody A-7-58 H1/L1 (antibody, V domains shown)
VH: QSVEESGGRLVTPGTPLTLTCTVSGIDLSSSVMAWVRQAPGKGLEWIGIITNRGNRYYAKWAKGRFTISRTSTTVGLKITSPTTADTATYFCGRGSVWGPGTLVTVSS
VL: QVLTQTPASVSAAIGGTVTIKCQSSQSFLDDNDLAWYQKKPGRPPKRLIKSASTLDSGVPSRFSGSGSGTQFTLTISDVQCADAATYYCLGDYDCSVGDCSAFGGGTEVVVKG
notes: Rabbit monoclonal antibody; also called A-58 H1 + A-58 L1
B2: rabbit anti-SOD1 antibody A-7-63 H2/L1 (antibody)
heavy: QSVGESGGGLVTPGTPLTLTCTVSGFSLSSYGVSWVRQAPGKGLEYIGFISTRGNPYYASWAKGRFTISKTSTTVDLKITSPTTEDTATYFCAGATVVGDSIWGPGTLVTVSSGQPKAPSVFPLAPCCGDTPSSTVTLGCLVKGYLPEPVTVTWNSGTLTNGVRTFPSVRQSSGLYSLSSVVSVTSSSQPVTCNVAHPATNTKVDKTVAPSTCSKPTCPPPELLGGPSVFIFPPKPKDTLMISRTPEVTCVVVDVSQDDPEVQFTWYINNEQVRTARPPLREQQFNSTIRVVSTLPIAHQDWLRGKEFKCKVHNKALPAPIEKTISKARGQPLEPKVYTMGPPREELSSRSVSLTCMINGFYPSDISVEWEKNGKAEDNYKTTPAVLDSDGSYFLYSKLSVPTSEWQRGDVFTCSVMHEALHNHYTQKSISRSPGK
light: QVLTQTASSVSAAVGGTVTISCQSSQSVYKGYWQAWYQQKPGQPPKLLIYETSTLASGVPSRFSGSGSGTQFTLTISGVQCDDAATYYCAGGYSNNIYTFGGGTEVVVKGDPVAPTVLIFPPAADQVATGTVTIVCVANKYFPDVTVTWEVDGTTQTTGIENSKTPQNSADCTYNLSSTLTLTSTQYNSHKEYTCKVTQGTTSVVQSFNRGDC
notes: Rabbit monoclonal antibody; also called A-63 H2 + A-63 L1
B3: rabbit anti-SOD1 antibody A-7-63 H3/L1 (antibody)
heavy: B2 heavy with G4E
light: B2 light
notes: Rabbit monoclonal antibody; also called A-63 H3 + A-63 L1

Target: T1, aggregated SOD1 (UniProt P00441 2-154)
T1 construct: Same protein as Dim SOD1, in a different conformational state; also called Agg SOD1
Assay: indirect ELISA; OD on aggregated SOD1 over OD on dimeric SOD1
Protocol: (§1) Supernatants producing hybridoma cell cultures producing rabbit monoclonal antibodies are analyzed by indirect ELISA for antibody activity on plates coated with 1 μg/well of peptide or protein antigen. […] The binding of anti-SOD1 antibodies were also characterized by ratio analyzes.

T1 sequence (P00441 2-154 limits assumed): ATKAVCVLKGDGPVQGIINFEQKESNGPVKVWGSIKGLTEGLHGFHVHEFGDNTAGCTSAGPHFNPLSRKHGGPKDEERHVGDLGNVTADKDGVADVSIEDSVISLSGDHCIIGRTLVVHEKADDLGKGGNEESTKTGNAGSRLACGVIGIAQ

Binder	Ab conc (ng/mL) at peak agg/dim OD ratio	Peak agg/dim OD ratio
B1	10.3 ng/mL	12.7
B2	6.01 ng/mL	10.7
B3	5.11 ng/mL	11.6

Target: T1, aggregated SOD1
Assay: indirect ELISA; ratio of the EC50 values on aggregated and dimeric SOD1
Protocol: as §1

Binder	Ratio Agg/Dim SOD1 EC50
B1	30.4
B2	26.7
B3	32.8
